In test [1] the target is T1, vIRF4 (Kaposi's-sarcoma-associated-herpesvirus vIRF4), full length wild type (Kaposi's-sarcoma-associated-herpesvirus …, UniProt Q2HR73 1-911).
T1 sequence: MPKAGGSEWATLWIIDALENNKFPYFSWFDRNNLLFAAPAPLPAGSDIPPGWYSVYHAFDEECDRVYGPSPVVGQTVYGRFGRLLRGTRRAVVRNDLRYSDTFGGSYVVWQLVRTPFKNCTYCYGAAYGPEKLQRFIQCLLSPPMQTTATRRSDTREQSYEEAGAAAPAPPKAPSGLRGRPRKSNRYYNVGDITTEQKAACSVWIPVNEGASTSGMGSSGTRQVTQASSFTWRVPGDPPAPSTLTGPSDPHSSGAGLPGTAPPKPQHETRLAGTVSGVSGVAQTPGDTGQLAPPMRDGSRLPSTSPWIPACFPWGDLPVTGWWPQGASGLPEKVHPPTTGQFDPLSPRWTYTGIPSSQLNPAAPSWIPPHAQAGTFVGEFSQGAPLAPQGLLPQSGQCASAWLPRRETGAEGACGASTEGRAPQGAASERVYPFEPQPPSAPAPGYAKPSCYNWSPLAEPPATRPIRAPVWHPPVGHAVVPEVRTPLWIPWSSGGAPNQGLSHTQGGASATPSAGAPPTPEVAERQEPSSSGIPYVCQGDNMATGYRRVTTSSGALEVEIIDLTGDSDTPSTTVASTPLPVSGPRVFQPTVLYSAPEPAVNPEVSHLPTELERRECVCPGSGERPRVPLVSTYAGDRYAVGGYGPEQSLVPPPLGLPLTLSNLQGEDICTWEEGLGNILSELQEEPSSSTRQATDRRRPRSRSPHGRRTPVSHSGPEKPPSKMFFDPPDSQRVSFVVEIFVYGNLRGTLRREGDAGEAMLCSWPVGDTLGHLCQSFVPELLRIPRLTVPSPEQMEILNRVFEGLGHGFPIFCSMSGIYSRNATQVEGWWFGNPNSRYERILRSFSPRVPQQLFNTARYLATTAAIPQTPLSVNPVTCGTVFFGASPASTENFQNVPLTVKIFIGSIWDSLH
As to the kind of experiment: co-immunoprecipitation from transfected 293T cells, IP: V5, IB: Flag.

For test [2], the target named is T2, HAUSP TRAF domain (HAUSP^62-205) (human, UniProt Q93009 62-205).
T2 construct: also called TRAF-like domain of HAUSP
T2 sequence (Q93009 62-205): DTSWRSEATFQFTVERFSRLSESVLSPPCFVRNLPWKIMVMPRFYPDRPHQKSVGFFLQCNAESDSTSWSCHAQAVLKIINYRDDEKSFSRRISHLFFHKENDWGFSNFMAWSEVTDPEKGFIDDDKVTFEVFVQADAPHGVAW
Put plainly: ITC. On the technique in general: In ITC the heat of successive injections is recorded.

Test [3] deals with T2, HAUSP TRAF domain (HAUSP^62-205). Put plainly: ITC, titration against the HAUSP TRAF domain, 20 C.
The target of test [4] is T3, HAUSP (Herpes virus-associated ubiquitin-specific protease), full length (human, UniProt Q93009 1-1102).
T3 construct: also called USP7; Flag-HAUSP
Put plainly: co-transfection in 293T cells (Flag-HAUSP with V5-vIRF4 constructs).

What is called Kd is the concentration at which binding is half-saturated.

B1: Flag/HAUSP 205-1108 (enzyme)
single chain: WDSKKHTGYVGLKNQGATCYMNSLLQTLFFTNQLRKAVYMMPTEGDDSSKSVPLALQRVFYELQHSDKPVGTKKLTKSFGWETLDSFMQHDVQELCRVLLDNVENKMKGTCVEGTIPKLFRGKMVSYIQCKEVDYRSDRREDYYDIQLSIKGKKNIFESFVDYVAVEQLDGDNKYDAGEHGLQEAEKGVKFLTLPPVLHLQLMRFMYDPQTDQNIKINDRFEFPEQLPLDEFLQKTDPKDPANYILHAVLVHSGDNHGGHYVVYLNPKGDGKWCKFDDDVVSRCTKEEAIEHNYGGHDDDLSVRHCTNAYMLVYIRESKLSEVLQAVTDHDIPQQLVERLQEEKRIEAQKRKERQEAHLYMQVQIVAEDQFCGHQGNDMYDEEKVKYTVFKVLKNSSLAEFVQSLSQTMGFPQDQIRLWPMQARSNGTKRPAMLDNEADGNKTMIELSDNENPWTIFLETVDPELAASGATLPKFDKDHDVMLFLKMYDPKTRSLNYCGHIYTPISCKIRDLLPVMCDRAGFIQDTSLILYEEVKPNLTERIQDYDVSLDKALDELMDGDIIVFQKDDPENDNSELPTAKEYFRDLYHRVDVIFCDKTIPNDPGFVVTLSNRMNYFQVAKTVAQRLNTDPMLLQFFKSQGYRDGPGNPLRHNYEGTLRDLLQFFKPRQPKKLYYQQLKMKITDFENRRSFKCIWLNSQFREEEITLYPDKHGCVRDLLEECKKAVELGEKASGKLRLLEIVSYKIIGVHQEDELLECLSPATSRTFRIEEIPLDQVDIDKENEMLVTVAHFHKEVFGTFGIPFLLRIHQGEHFREVMKRIQSLLDIQEKEFEKFKFAIVMMGRHQYINEDEYEVNLKDFEPQPGNMSHPRPWLGLDHFNKAPKRSRYTYLEKAIKIHN
notes: N-terminal deletion fragment without the TRAF domain
B1: the binding result in test [1] is listed as “no binding”.

B2: vIRF4^153-256 (other)
chain: SDTREQSYEEAGAAAPAPPKAPSGLRGRPRKSNRYYNVGDITTEQKAACSVWIPVNEGASTSGMGSSGTRQVTQASSFTWRVPGDPPAPSTLTGPSDPHSSGAG
For the molecule B2, the “fold higher affinity (against vIRF4^153-216 and vIRF4^202-216)” value in test [2] was 7 fold. In test [3], the Ka was determined as 1.32e+07 M⁻¹; the affinity, expressed as Kd, was 76 nM; the TΔS was -10.1 kcal/mol; the n is 1.13. Besides, in test [3], the ΔG is -7.64 kcal/mol and the ΔH is -17.7 kcal/mol.

B3: vIRF4Δ^202-256 mutant (other)
chain: MPKAGGSEWATLWIIDALENNKFPYFSWFDRNNLLFAAPAPLPAGSDIPPGWYSVYHAFDEECDRVYGPSPVVGQTVYGRFGRLLRGTRRAVVRNDLRYSDTFGGSYVVWQLVRTPFKNCTYCYGAAYGPEKLQRFIQCLLSPPMQTTATRRSDTREQSYEEAGAAAPAPPKAPSGLRGRPRKSNRYYNVGDITTEQKAACLPGTAPPKPQHETRLAGTVSGVSGVAQTPGDTGQLAPPMRDGSRLPSTSPWIPACFPWGDLPVTGWWPQGASGLPEKVHPPTTGQFDPLSPRWTYTGIPSSQLNPAAPSWIPPHAQAGTFVGEFSQGAPLAPQGLLPQSGQCASAWLPRRETGAEGACGASTEGRAPQGAASERVYPFEPQPPSAPAPGYAKPSCYNWSPLAEPPATRPIRAPVWHPPVGHAVVPEVRTPLWIPWSSGGAPNQGLSHTQGGASATPSAGAPPTPEVAERQEPSSSGIPYVCQGDNMATGYRRVTTSSGALEVEIIDLTGDSDTPSTTVASTPLPVSGPRVFQPTVLYSAPEPAVNPEVSHLPTELERRECVCPGSGERPRVPLVSTYAGDRYAVGGYGPEQSLVPPPLGLPLTLSNLQGEDICTWEEGLGNILSELQEEPSSSTRQATDRRRPRSRSPHGRRTPVSHSGPEKPPSKMFFDPPDSQRVSFVVEIFVYGNLRGTLRREGDAGEAMLCSWPVGDTLGHLCQSFVPELLRIPRLTVPSPEQMEILNRVFEGLGHGFPIFCSMSGIYSRNATQVEGWWFGNPNSRYERILRSFSPRVPQQLFNTARYLATTAAIPQTPLSVNPVTCGTVFFGASPASTENFQNVPLTVKIFIGSIWDSLH
As for B3, in test [4], the binding result was “no binding”.

The record behind these values is patent US20180201654A1 (UNIVERSITY OF SOUTHERN CALIFORNIA, published 2018).
